From patent EP1151102B1
Where two headings read alike, the source gives them in different places.

Legend:
[1] = target: chimeric leptin receptor-EPO receptor (OBR-EPOR) on 32D-OBECA cells (human; murine) (UniProt P48357); test: cell-based or functional assay
[2] = target: human leptin receptor (short form), membrane-bound, from stably transfected CHO cells (human) (UniProt P48357); test: 125I-Leptin competition on membranes of CHO cells expressing human leptin receptor; IC50 vs WT
[3] = target: human leptin receptor (short form), membrane-bound, from stably transfected CHO cells (human) (UniProt P48357); test: as above; remark: listed apart in the source

Bio activity Rel. to WT. [1] | Receptor binding Rel. to WT. [2] | Bioactivity Rel. to WT. [1] | Bio-activity Rel. to WT. [1] | Receptor binding Rel. to WT. [3] | Substance
0.36 rel. to WT | 0.6 rel. to WT |  |  |  | rHu-Leptin 1-145 expressed with the erythropoietin signal peptide (ligand)
1 rel. to WT | 1 rel. to WT | 1 rel. to WT |  |  | rHu-Leptin 1-146 (wild type) (ligand)
1.8 rel. to WT | 3.5 rel. to WT |  |  |  | rHu-Leptin 1-146 expressed with the erythropoietin signal peptide and human albumin prosequence (ligand)
 | 1.7 rel. to WT | 0.05 rel. to WT |  |  | rHu-Leptin 1-146, site 5 (KVQ > NVT) (ligand)
 | 1.25 rel. to WT | 0.04 rel. to WT |  |  | rHu-Leptin 1-146, site 7 (QDD > NDT) (ligand)
 | 0.5 rel. to WT |  | 0.79 rel. to WT |  | rHu-Leptin 1-146, site 23a (DIS > NIT), erythropoietin signal peptide (ligand)
 | 0.4 rel. to WT | 0.02 rel. to WT |  |  | rHu-Leptin 1-146, site 25 (SHT > NHT) (ligand)
 | 1.5 rel. to WT | 0.01 rel. to WT |  |  | rHu-Leptin 1-146, site 26 (HTQ > NTT) (ligand)
 | 0.7 rel. to WT | 0.13 rel. to WT |  |  | rHu-Leptin 1-146, site 27 (TQS > NQT) (ligand)
 | 0.6 rel. to WT | 0.5 rel. to WT |  |  | rHu-Leptin 1-146, site 29 (SVS > NVT) (ligand)
 | 0.9 rel. to WT | 0.04 rel. to WT |  |  | rHu-Leptin 1-146, site 33 (KQK > NQT) (ligand)
 | 0.5 rel. to WT | 0.13 rel. to WT |  |  | rHu-Leptin 1-146, site 35 (KVT > NVT) (ligand)
 | 0.2 rel. to WT | 0.036 rel. to WT |  |  | rHu-Leptin 1-146, site 38 (GLD > NLT) (ligand)
 | 1.5 rel. to WT | 0.014 rel. to WT |  |  | rHu-Leptin 1-146, site 43 (PGL > NGT) (ligand)
 | 0.5 rel. to WT | 0.08 rel. to WT |  |  | rHu-Leptin 1-146, site 45 (CHP > NHT) (ligand)
 | 0.11 rel. to WT | 0.27 rel. to WT |  |  | rHu-Leptin 1-146, site 46 (HPI > NPT) (ligand)

Bio activity Rel. to WT. [1] | Receptor binding Rel. to WT. [2] | Bioactivity Rel. to WT. [1] | Bio-activity Rel. to WT. [1] | Receptor binding Rel. to WT. [3] | Substance
 | 0.66 rel. to WT | 0.84 rel. to WT | 0.84 rel. to WT |  | rHu-Leptin 1-146, site 47 (PIL > NIT) (ligand)
 | 0.8 rel. to WT | 0.53 rel. to WT | 0.53 rel. to WT |  | rHu-Leptin 1-146, site 48 (ILT > NLT) (ligand)
 | 0.8 rel. to WT | 0.036 rel. to WT |  |  | rHu-Leptin 1-146, site 68 (MPS > NAT) (ligand)
 | 1.9 rel. to WT | 0.3 rel. to WT |  |  | rHu-Leptin 1-146, site 71 (RNV > NNT) (ligand)
 | 1.7 rel. to WT | 0.26 rel. to WT |  |  | rHu-Leptin 1-146, site 72 (NVI > NVT) (ligand)
 | 8 rel. to WT | 0.01 rel. to WT |  |  | rHu-Leptin 1-146, site 73 (VIQ > NIT) (ligand)
 | 2.2 rel. to WT | < 0.02 rel. to WT |  |  | rHu-Leptin 1-146, site 77 (SND > NNT), expressed with the erythropoietin signal peptide (ligand)
 | 1.6 rel. to WT | 0.67 rel. to WT | 0.8 rel. to WT |  | rHu-Leptin 1-146, site 92 (FSK > NST) (ligand)
 |  | 1.1 rel. to WT |  |  | rHu-Leptin 1-146, site 93 (SKS > NKT) (ligand)
 |  | 1.1 rel. to WT |  |  | rHu-Leptin 1-146, site 97 (HLP > NLT) (ligand)
 | 0.9 rel. to WT | 0.5 rel. to WT |  |  | rHu-Leptin 1-146, site 99 (PWA > NWT) (ligand)
 | 0.7 rel. to WT | 1.46 rel. to WT |  |  | rHu-Leptin 1-146, site 100b (WAS > NAS) (ligand)
 | 1 rel. to WT | 0.73 rel. to WT |  |  | rHu-Leptin 1-146, site 103 (GLE > NLT) (ligand)
 | 0.9 rel. to WT | 0.56 rel. to WT |  |  | rHu-Leptin 1-146, site 116 (ASG > NST) (ligand)
 | 1.9 rel. to WT | 0.01 rel. to WT |  |  | rHu-Leptin 1-146, site 117 (SGY > NGT) (ligand)

More lines, now with the values behind:

Substance | Bio activity Rel. to WT. [1] | Receptor binding Rel. to WT. [2] | Bioactivity Rel. to WT. [1] | Bio-activity Rel. to WT. [1] | Receptor binding Rel. to WT. [3]
rHu-Leptin 1-145 (ligand) | 0.14 rel. to WT | 1.3 rel. to WT |  |  | 
rHu-Leptin 1-146 expressed with the native human erythropoietin signal peptide (ligand) | 0.95 rel. to WT | 1 rel. to WT |  |  | 
rHu-Leptin 1-146, site 4 (QKV > NKV) (ligand) |  | 1.7 rel. to WT | 0.73 rel. to WT |  | 
rHu-Leptin 1-146, site 8 (DDT > NDT) (ligand) |  | 1.2 rel. to WT | 1.2 rel. to WT |  | 
rHu-Leptin 1-146, site 23a (DIS > NIT) (ligand) |  |  | 0.53 rel. to WT | 0.53 rel. to WT | 
rHu-Leptin 1-146, site 37 (TGL > NGT) (ligand) |  | 0.4 rel. to WT | 0.043 rel. to WT |  | 
rHu-Leptin 1-146, site 44 (GLH > NLT) (ligand) |  | 2 rel. to WT | 0.78 rel. to WT |  | 
rHu-Leptin 1-146, site 67 (SMP > NMT) (ligand) |  | 0.8 rel. to WT | 0.52 rel. to WT |  | 
rHu-Leptin 1-146, site 69 (PSR > NST) (ligand) |  | 0.6 rel. to WT | 1.1 rel. to WT | 1.1 rel. to WT | 
rHu-Leptin 1-146, site 70 (SRN > NRT) (ligand) |  | 1 rel. to WT | 1 rel. to WT |  | 
rHu-Leptin 1-146, site 100a (PWAS > SNAT) (ligand) |  | 0.6 rel. to WT | 0.9 rel. to WT |  | 
rHu-Leptin 1-146, site 100c (WAS > NAT) (ligand) |  | 0.45 rel. to WT | 0.81 rel. to WT |  | 
rHu-Leptin 1-146, site 100d (PWAS > ANAT) (ligand) |  | 1.45 rel. to WT | 0.26 rel. to WT |  | 
rHu-Leptin 1-146, site 100e (WAS > TAS) (ligand) |  | > 1.9 rel. to WT | 0.83 rel. to WT |  | 
rHu-Leptin 1-146, site 101 (ASG > NST) (ligand) |  | 0.7 rel. to WT | 0.33 rel. to WT |  | 
rHu-Leptin 1-146, site 102 (SGL > NGT) (ligand) |  | 0.6 rel. to WT | 0.85 rel. to WT | 0.66 rel. to WT | 0.5 rel. to WT
rHu-Leptin 1-146, site 115 (EAS > NAT) (ligand) |  | 0.9 rel. to WT | 0.006 rel. to WT |  | 
rHu-Leptin 1-146, site 118 (GYS > NYT) (ligand) |  | 0.8 rel. to WT | 3.8 rel. to WT |  | 
rHu-Leptin 1-146, site 119 (YST > NST) (ligand) |  | 0.8 rel. to WT | 0.02 rel. to WT |  | 
rHu-Leptin 1-146, site 120 (STE > NTT) (ligand) |  | 0.7 rel. to WT | 0.01 rel. to WT |  | 
rHu-Leptin 1-146, site 141 (DLS > NLT) (ligand) |  | 0.3 rel. to WT | 1 rel. to WT |  | 
